Where a chain is given by its changes, count along the chain named.

B1: S009-F8-4.5 (antibody, human IgG1, kappa, V domains shown)
VH: QVQLQQPGAELVKPGASVKLSCKASGYTFTIYWMHWVKQRPGQGLEWIGMIHPNSGNTNYNEKFKSKATLTVDKSSSTAYMQLSSLTSEDSAVYYCSLIHWYFDVWGTGTTVTVSS
VL: QIVLTQSPAIMSASPGEKVTMTCSASSSVSYMYWYQQKPGSSPRLLIYDTSNLASGVPVRFSGSGSGTSYSLTISRMEAEDAATYYCQQWSSYPLTFGAGTKLELKR
notes: Human-murine chimeric antibody, human IgG1 heavy and kappa light constant regions
B2: S009-F8-13.8 (antibody, human IgG1, kappa, V domains shown)
VH: EFQLQQSGPELVKPGASVKISCKASGYSFTDYNMNWVKQTNGKSLEWIGIINPNYGTSSYNQKFKGKATLTVDQSSSTAYMQLNSLTSEDSAVYYCARVGRDNSGFDYWGQGTTLTVSS
VL: B1 VL with L95P, A99S, K102E, L105I
notes: as for B1
B3: S009-F8-22.23 (antibody, human IgG1, kappa, V domains shown)
VH: QVQLKQSGPGLVQPSQSLSITCTVSGFSLFSYGVHWVRQSPGKGLEWLGVIWSGGSTDYNAAFISRLSISKDNSKSQVFFKMNSLQADDTAMYYCARNGGSMITTLYYAMDYWGQGTSVTVSS
VL: DVVMTQTPLSLPVSLGDQASISCRSSQSLVHSYGNTYLHWYLQKPGQSPKLLIYKVSNRFSGVPDRFSGSGSGTDFTLKISRVEAEDLGVYFCSQSTHIPFTFGGGTKLEIKR
notes: as for B1
B4: S009-F8-5.15 (antibody, human IgG1, kappa, V domains shown)
VH: QVQLQQPGTELVKPGASVKLSCKASGYTFTSYWMHWVKQRPGQGLEWIGHSNPSNGGTNYNEKFKSKATLTVDKSSSTAYMQLSSLTSEDSAVYYCARWVRGSNYEYFDVWGTGTTVTVSS
VL: DIVMTQSQKFMSTTVGDRVSIICKASQNVGSAVAWCQQKPGQSPKLLIYSASNRYTGVPDRFTGSGSGTDFTLTISNMQSEDLADYFCQQYSSYPLTFAGGTKLEIKR
notes: as for B1
B5: S009-F8-8.22 (antibody, human IgG1, kappa, V domains shown)
VH: EVQLQQSGPELVKPGASVKMSCKASGYTFTDYIIHWVKQSHGKSLEWIAYIFPNNGGTGYNQKFRGKATLTVNKSSSTAYMELRSLTSEDSAVYYCARWRLRQYFDVWGTGTTVTVSS
VL: B4 VL with T14I, I22T, S31T, C36Y, A99G
notes: as for B1
B6: S009-F8-7.5 (antibody, human IgG1, kappa, V domains shown)
VH: DVQLQESGPGLVKPSQSLSLTCSVTGYSITSGYYWNWIRQFPGNKLEWMAYIRYDGSNNYNPSLKNRISIIRDTSKNQFFLRLNSVTTEDTATYYCAKSYYGMDDWGQGISVTVSS
VL: DIQMTQSPASLSASVGETVTITCRTSGDIHNYLAWYQQKQGKSPQLLVYKAKTLENGVPSRFTGSGSGTQFSLKIDSLQPEDFGTYYCQHFWTTPYTFGGGTKLEIKR
notes: as for B1
B7: S009-F8-18.9 (antibody, human IgG1, kappa, V domains shown)
VH: EFQLQQSGPELVKPGASVKISCKASGYSFTDYNMNWVKQSNGKSLEWIGIINPNYGTTSYNQKFKGRATLTVDQSSSTAYVQLNSLTSEDSAVYYCARGGYDNEAMDYWGQGTSVTVSS
VL: QIVLTQSPAIMSASPGEKVTMTCSASSSVSYMHWYQQKSGTSPKRWIYDTSKLASGVPARFSGSGSGTSYSLTISSMEAEDAATYYCQQWSSNPPTFGAGTKLELKR
notes: as for B1
B8: S009-F8-19.21 (antibody, human IgG1, kappa, V domains shown)
VH: B7 VH with A24T, I50V, S59G, R67K, V81M, N103G, Q111H
VL: B7 VL with S30N, N93Y, A99G, L105I
notes: as for B1
B9: S009-F8-12.13 (antibody, human IgG1, kappa, V domains shown)
VH: QVQLQQPGAELVKPGASVKLSCKASGYTFTSYWMHWVKQRPGQGLEWIGMIHPNSGSTNYNEKFKSKATLTVDKSSSTAYMQLSSLTSEDSAVYYCARRTPIITLVGHWYFDVWGTGTTVTVSS
VL: DIVMTQSHKFMSTSVGDRVSITCKASQDVGTAVAWYQQKPGQSPKLLIYWASTRHTGVPDRFTGSGSGTDFTLTISNVQSEDLADYFCQQYSSYPLTFGAGTKLELKR
notes: as for B1
B10: S009-F8-15.19 (antibody, human IgG1, kappa, V domains shown)
VH: EFQLQQSGPELVKPGASVKISCKASGYSFTDYNMNWVKQSNGKSLEWIGIINPYYGTTSNNQNFKGKATLTVDQSSSTAYMQLNSLTSDDSAVYYCARWLRRDAMDYWGQGTSVTVSS
VL: B9 VL with Q6P, T22A, T31S, A32S, A51T, L96W, A100G, L106I
notes: as for B1

T1 sequence (Q13421 other isoform, or with tags, fused parts or gaps): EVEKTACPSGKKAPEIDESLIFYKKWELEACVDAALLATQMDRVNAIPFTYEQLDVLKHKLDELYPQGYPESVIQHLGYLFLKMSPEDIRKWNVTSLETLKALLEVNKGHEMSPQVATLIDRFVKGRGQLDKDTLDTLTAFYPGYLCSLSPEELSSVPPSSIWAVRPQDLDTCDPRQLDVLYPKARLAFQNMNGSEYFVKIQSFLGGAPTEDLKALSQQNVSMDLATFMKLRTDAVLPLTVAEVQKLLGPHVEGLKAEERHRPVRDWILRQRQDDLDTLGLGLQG

One test addresses T1, human MSLN-FL-his protein (human, UniProt Q13421 296-580).
T1 construct: Made in HEK293E cells, purified on nickel column; it is put last here; also called human MSLN full-length protein; hMSLN-FL-his; not shown: His tag
Description: ELISA on coated antigen, antibody 10 nM.
As for B1, the OD450 came out at 2.79 OD.
Regarding B2, the OD450 is 2.34 OD.
The same measure, in the same setting: next, B3: 2.88 OD; B4: 2.75 OD.
With B5, the OD450 stood at 3.15 OD.
B6 gave an OD450 of 2.73 OD.
B7 gave an OD450 of 2.39 OD.
The same measure, in the same setting: next, B8: 2.32 OD; B9: 2.53 OD.
In turn, B10 registered an OD450 of 2.47 OD.

The target in a further test is T1, human MSLN-FL-his protein. The experiment in a line: ELISA on coated antigen, antibody 0.0001 nM.
Description: (§1) The plate was sealed with a plastic film and incubated at 4° C. overnight. The next day, the plate was washed twice with PBST, and a blocking buffer [PBS+2% (w/w) BSA] was added for blocking at room temperature for 2 h. The blocking buffer was discarded, and a chimeric antibody or negative control antibody serially diluted from 100 nM was added at 50 μL/well. After incubation at 37° C. for 2 h, the plate was washed 3 times with PBST. […] After incubation at 37° C. for 2 h, the plate was washed 5 times with PBST. A TMB substrate was added at 50 μL/well for incubation at room temperature for 5-10 min, and then a stop solution (1.0 N HCl) was added at 50 μL/well.
B1 had an OD450 of 0.07 OD.
On the same count and under the same terms, for B2 the value was 0.05 OD.
On to B3, for which the OD450 amounted to 0.29 OD.
The same measure, in the same setting: next, B4: 0.05 OD; B5: 0.1 OD; B6: 0.06 OD.
With B7, the OD450 turned out to be 0.06 OD.
Still for that read-out and setting: for B8 the value was 0.06 OD.
On to B9, for which the OD450 is 0.32 OD.
On the same count and under the same terms, next, B10: 0.05 OD.

A further test has as its target T1, human MSLN-FL-his protein. Description: ELISA on coated antigen, antibody 0.001 nM.
Description: as §1
In turn, B1 registered an OD450 of 0.1 OD.
Still for that read-out and setting: next, B2: 0.07 OD; B3: 0.44 OD; B4: 0.08 OD.
On the same count and under the same terms, next, B5: 0.23 OD; B6: 0.12 OD; B7: 0.15 OD.
Molecule B8 returned an OD450 of 0.1 OD.
The same measure, in the same setting: next, B9: 0.49 OD; B10: 0.08 OD.

In the next test the target is T1, human MSLN-FL-his protein. The experiment in a line: ELISA on coated antigen, antibody 1 nM.
Description: as §1
B1 returned an OD450 of 2.8 OD.
Molecule B2 yielded an OD450 of 2.05 OD.
In the case of B3, the OD450 was determined as 2.49 OD.
Still for that read-out and setting: for B4 the value was 2.51 OD.
As for B5, the OD450 was 2.75 OD.
Take B6: the OD450 was found to be 2.55 OD.
On the same count and under the same terms, next, B7: 2.29 OD.
For the molecule B8, the OD450 stood at 2.05 OD.
Same read-out and setting: next, B9: 2.42 OD.
Still for that read-out and setting: next, B10: 2.23 OD.

Another test deals with T1, human MSLN-FL-his protein. The experiment in a line: ELISA on coated antigen, antibody 100 nM.
Description: as §1
B1 yielded an OD450 of 2.94 OD.
Still for that read-out and setting: next, B2: 2.69 OD.
B3 gave an OD450 of 2.9 OD.
On the same count and under the same terms, for B4 the value was 3.16 OD; for B5, 3.15 OD.
In the case of B6, the OD450 came out at 3.22 OD.
B7 returned an OD450 of 2.42 OD.
Still for that read-out and setting: for B8 the value was 2.37 OD; for B9, 2.94 OD.
Molecule B10 had an OD450 of 2.64 OD.

Another test concerns the target T1, human MSLN-FL-his protein. The experiment in a line: ELISA on coated antigen, antibody 0.01 nM.
Description: as §1
B1 showed an OD450 of 0.18 OD.
In the case of B2, the OD450 was determined as 0.24 OD.
Molecule B3 had an OD450 of 0.92 OD.
For B4, the OD450 came to 0.34 OD.
B5 gave an OD450 of 0.91 OD.
On the same count and under the same terms, for B6 the value was 0.49 OD; for B7, 0.71 OD; for B8, 0.4 OD.
Still for that read-out and setting: for B9 the value was 1.26 OD; for B10, 0.24 OD.

In a further test the target is T1, human MSLN-FL-his protein. The experiment in a line: ELISA on coated antigen, no antibody (blank, column 'none').
Description: as §1
As to B1, the OD450 was 0.06 OD.
Molecule B2 showed an OD450 of 0.05 OD.
Consider B3, for which the OD450 was 0.04 OD.
Consider B4, for which the OD450 turned out to be 0.05 OD.
On to B5, for which the OD450 was 0.05 OD.
Still for that read-out and setting: next, B6: 0.05 OD.
In turn, B7 registered an OD450 of 0.05 OD.
On the same count and under the same terms, for B8 the value was 0.06 OD; for B9, 0.05 OD; for B10, 0.05 OD.

The next test deals with T1, human MSLN-FL-his protein. Description: ELISA on coated antigen, antibody 0.1 nM.
Description: as §1
Molecule B1 had an OD450 of 1.31 OD.
Turning to B2, the OD450 is 1.18 OD.
On the same count and under the same terms, next, B3: 1.71 OD; B4: 1.53 OD; B5: 1.97 OD.
Same read-out and setting: for B6 the value was 1.88 OD; for B7, 1.93 OD.
Still for that read-out and setting: next, B8: 1.61 OD; B9: 2.22 OD.
With B10, the OD450 was 1.11 OD.

(Values after patent US20250250357A1 (NANJING ZAIMING PHARMACEUTICAL, published 2025).)
